One may read the stoichiometry N as the number of molecules, sites or subunits per partner or assembly.

The series concerns the molecule itself. Briefly: SEC; full-length PmrA incubated with BeF3- and Mg2+ (5.3 mM BeSO4, 35 mM NaF, 7 mM MgCl2) to mimic phosphorylation; 25 mM Tris pH 8.0, 150 mM NaCl, 5% glycerol. Background: In gel filtration, larger molecules generally elute earlier.

B1: Acinetobacter baumannii PmrA full length (natural protein)
chain: MTKILMIEDDFMIAESTITLLQYHQFEVEWVNNGLDGLAQLAKTKFDLILLDLGLPMMDGMQVLKQIRQRAATPVLIISARDQLQNRVDGLNLGADDYLIKPYEFDELLARIHALLRRSGVEAQLASQDQLLESGDLVLNVEQHIATFKGQRIDLSNREWAILIPLMTHPNKIFSKANLEDKLYDFDSDVTSNTIEVYVHHLRAKLGKDFIRTIRGLGYRLGQS
notes: Response regulator PmrA of A. baumannii, UniProt E2FGC2; full length, printed as residues 1–244 in the methods, while the introduction places the DBD at 129–223; Cloned in pET28a; In one SEC run it was incubated with BeF3- and Mg2+ (aspartate phosphorylation mimic); this is treated as a condition of the assay, not as another molecule; also called PmrA FL; full-length PmrA; source: E. coli BL21 …
As for B1, the “stoichiometry N” value is 2.

The record behind these values is PMC10927774, “Mechanistic and biophysical characterization of polymyxin resistance response regulator PmrA in Acinetobacter baumannii” (Frontiers in Microbiology, 2024).
